Results as given in patent publication US20240254229A1 (Molecular Partners, published 2024).

T1: extracellular domain of human CD70 (SEQ ID NO: 89), hCD70-Fc-trimer, ACRO Biosystems (human, UniProt P32970 52-193, chemically biotinylated where the biotinylated form was used)
T1 construct: also called human CD70-Fc-trimer; Bio.CD70
T1 sequence: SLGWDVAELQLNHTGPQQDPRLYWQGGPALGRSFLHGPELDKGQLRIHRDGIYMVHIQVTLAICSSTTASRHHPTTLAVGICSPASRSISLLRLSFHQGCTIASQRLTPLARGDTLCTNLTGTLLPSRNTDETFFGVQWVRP

T2: biotinylated extracellular domain of human CD123 (SEQ ID NO: 88), Fc and Avi tagged (human, UniProt P26951 19-303, biotinylated with BirA-GST (Avi tag))
T2 construct: also called hCD123
T2 sequence: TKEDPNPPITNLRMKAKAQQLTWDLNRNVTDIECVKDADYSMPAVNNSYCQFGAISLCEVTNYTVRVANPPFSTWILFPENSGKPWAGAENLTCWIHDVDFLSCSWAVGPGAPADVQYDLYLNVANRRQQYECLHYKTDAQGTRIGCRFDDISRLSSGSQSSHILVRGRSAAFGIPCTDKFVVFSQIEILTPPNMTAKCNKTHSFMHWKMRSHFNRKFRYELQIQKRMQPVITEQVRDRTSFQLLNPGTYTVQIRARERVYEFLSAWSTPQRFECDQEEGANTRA


Legend:
[1] = biological target: T3, Molm-13 N1 tumor cells (carrying CD123, CD33 and CD70) (human, UniProt P20138 18-364; P26951 19-378; P32970 1-193); assay: flow cytometry on Molm-13 N1 cells, 20 uM HSA
T3 construct: whole, on cells; Not a complex: three separate antigens on one cell; also called Molm-13 N1 cells
Protocol: The determination of binding of several multispecific proteins to tumor cells was performed by Fluorescence Activated Cell Sorting (FACS) flow cytometry. Therefore, tumor cells (Molm-13 N1), were seeded at 100′000 cells per well in a 96 well plate. DARPin® protein #56, DARPin® protein #57, DARPin® protein #58, DARPin® protein #59, DARPin® protein #60, DARPin® protein #61 and DARPin® protein #62 were titrated down starting at 100 nM in 1:5 dilution ratio. Tumor cells were resuspended with diluted DARPin® proteins and incubated 60 minutes at 4° C. The assay was performed in PBS including 2% fetal bovine serum and human serum albumin 20 uM (HSA). After washing twice with Phosphate Buffer saline (PBS), DARPin® protein specific tumor cell binding was detected by adding unlabelled primary […] (anti-rabbit 1-1-1 antibody, CePower) at 2 ug/ml. An incubation step of at least 30 minutes at 4° C. followed. Afterwards, cells were washed with PBS and a secondary anti-rabbit antibody labelled with Alexa Fluor 647 antibody (ThermoFisher) at 2 ug/ml was added. The same incubation conditions applied. Finally, the cells were washed twice and resuspended in Cytofix fixation buffer (BD Biosciences) for 15 min at room temperature (RT). Median fluorescence intensities (MFI) of Alexa Fluor 647 DARPin® labelled cells were measured by Attune NxT (Thermo Fisher) using FlowJo software for analyses and GraphPad Prism 8 for data plotting.

[2] = biological target: T1, extracellular domain of human CD70 (SEQ …); assay: SPR (ProteOn XPR36), target on GLC chip, DARPin as analyte
From the text: (§1) For that, DARPin® protein #27, DARPin® protein #29, DARPin® protein #47 and DARPin® protein #48 and DARPin® protein #49, DARPin® protein #50, DARPin® protein #51, DARPin® protein #52, DARPin® protein #31, DARPin® protein #53, DARPin® protein #54, DARPin® protein #55, DARPin® protein #34, DARPin® protein #33, DARPin® protein #39 and DARPin® protein #36 were subcloned and expressed as described above into derivatives of the pQE30 (Qiagen) expression vector, containing an N-terminal His-tag, CD33, CD123 and/or CD70 binding ankyrin repeat domains, followed by a CD3 specific ankyrin repeat domain and for some constructs by a human serum albumin specific ankyrin repeat domain.
(§2) Briefly, biotinylated human CD70, CD123 and CD33 was diluted in PBST (PBS, pH 7.4 containing 0.005% Tween 20®) and coated on a GLC chip (BioRad) to a level of around 200, 460 and 450 resonance units (RU) respectively. HSA in NaOAc pH 5.0 was directly immobilized on the GLC chip to a level of 800 RU. Bio.CD70, bio. CD33 and bio. CD123 required to have Neutravidin coated first to a level of 6000 RU before the biotinylated targets could be applied. The interaction of the selected ankyrin repeat proteins and human CD70, CD123 and CD33 was then measured by injecting 300 μl running buffer (PBS, pH 7.4 containing 0.005% Tween 20®) containing serial dilutions of ankyrin repeat proteins covering a concentration range between 100 nM and 2.6 nM (100, 40, 16, 6.4 and 2.6 nM respectively) for multi-trace SPR measurements, with an association of 120 s and dissociation of 1200 s using a constant flow of 100 μl/min. The regeneration was performed using 30 μl of 4 mM Glycine pH 2. The signals (i.e. resonance unit (RU) values) of the interspots and a reference injection (i.e. injection of running buffer only) were subtracted from the RU traces obtained after injection of ankyrin repeat protein (double-referencing).

human serum albumin = biological target: T4, human serum albumin (human, UniProt P02768 25-609); assay: as above
T4 construct: also called HSA; SA
From the text: as §1, §2

[3] = biological target: T5, biotinylated extracellular domain of human CD33 (SEQ ID NO: 87), Fc and Avi tagged (human, UniProt P20138 18-259, biotinylated with BirA-GST (Avi tag)); assay: as above
T5 construct: also called hCD33; human target hCD33
From the text: as §1, §2

[4] = biological target: T2, biotinylated extracellular domain of …; assay: SPR (ProteOn XPR36), target on GLC chip
From the text: as §1, §2

T3 sequence (P20138 18-364, one chain of several): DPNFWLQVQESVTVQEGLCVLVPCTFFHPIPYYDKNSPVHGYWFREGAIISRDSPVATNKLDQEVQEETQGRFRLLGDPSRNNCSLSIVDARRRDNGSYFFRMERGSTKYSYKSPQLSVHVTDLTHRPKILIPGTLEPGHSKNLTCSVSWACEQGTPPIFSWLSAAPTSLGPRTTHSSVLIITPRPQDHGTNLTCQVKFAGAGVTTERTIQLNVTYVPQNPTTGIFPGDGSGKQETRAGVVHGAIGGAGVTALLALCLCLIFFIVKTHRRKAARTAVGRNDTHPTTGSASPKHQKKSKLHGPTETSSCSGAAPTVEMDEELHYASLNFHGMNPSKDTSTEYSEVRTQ
T4 sequence (P02768 25-609 limits assumed): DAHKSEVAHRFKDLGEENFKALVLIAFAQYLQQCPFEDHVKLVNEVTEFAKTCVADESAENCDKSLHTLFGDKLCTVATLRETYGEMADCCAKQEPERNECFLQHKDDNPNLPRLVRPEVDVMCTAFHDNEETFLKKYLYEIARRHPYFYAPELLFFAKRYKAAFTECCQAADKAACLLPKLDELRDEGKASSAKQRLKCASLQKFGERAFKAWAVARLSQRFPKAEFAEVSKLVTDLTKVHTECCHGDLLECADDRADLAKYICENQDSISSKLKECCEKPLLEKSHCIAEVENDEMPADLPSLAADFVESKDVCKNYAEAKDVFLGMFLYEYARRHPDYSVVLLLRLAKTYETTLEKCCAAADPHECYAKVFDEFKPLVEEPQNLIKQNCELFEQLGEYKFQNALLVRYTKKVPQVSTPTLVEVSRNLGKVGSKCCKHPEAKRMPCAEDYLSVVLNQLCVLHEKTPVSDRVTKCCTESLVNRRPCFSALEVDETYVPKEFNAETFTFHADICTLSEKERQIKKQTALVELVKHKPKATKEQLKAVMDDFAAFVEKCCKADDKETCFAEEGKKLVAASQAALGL
T5 sequence (P20138 18-259 R69G): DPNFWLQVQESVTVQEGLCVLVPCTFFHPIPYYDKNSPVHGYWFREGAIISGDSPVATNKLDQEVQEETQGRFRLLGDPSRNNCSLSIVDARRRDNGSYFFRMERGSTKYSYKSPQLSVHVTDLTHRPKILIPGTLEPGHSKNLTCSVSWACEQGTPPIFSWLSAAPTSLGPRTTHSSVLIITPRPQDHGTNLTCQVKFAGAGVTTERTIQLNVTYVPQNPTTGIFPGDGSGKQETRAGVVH

EC50 [1] [nM] | Kd [2] [nM] | Kd (human serum albumin) [nM] | Kd [3] [nM] | Binder | binding result [4]
0.13 |  |  |  | DARPin® protein #61 (designed binder, HSA-HSA-CD70-CD123-CD33-CD3) DLGKKLLEAARAGQDDEVRELLKAGADVNAKDYFSHTPLHLAARNGHLKIVEVLLKAGADVNAKDFAGKTPLHLAAADGHLEIVEVLLKAGADVNAQDIFGKTPADIAADAGHEDIAEVLQKAAGSPTPTPTTPTPTPTTPTPTPTGSDLGKKLLEAARAGQDDEVRELLKAGADVNAKDYFSHTPLHLAARNGHLKIVEVLLKAGADVNAKDFAGKTPLHLAAADGHLEIVEVLLKAGADVNAQDIFGKTPADIAADAGHEDIAEVLQKAAGSPTPTPTTPTPTPTTPTPTPTGSDLGKKLLQAARAGQLDEVRELLKAGADVNAKDQQGLTPLHIAANLGHLEIVEVLLKAGADVNAKDLFGLTPLHLAAFEGHLEIVEVLLKAGADVNAKDQHGATPLHLAAWVGHLEIVEVLLKAGADVNAQDKSGKTPADLAARAGHQDIAEVLQKAAGSPTPTPTTPTPTPTTPTPTPTGSDLGKKLLQAALEGQLDEVRELLKAGADVNAKDIEGYTPLHLAAALGHLEIVEVLLKAGADVNAKDQIGRTPLHLAAYKGHLEIVEVLLKAGADVNAQDIIGQTPADLAAQRGHQDIAEVLQKAAGSPTPTPTTPTPTPTTPTPTPTGSDLGKKLLLAAERGQLDEVRILLKAGADVNAKDRAEGYTPLHIAAYQGHLEIVEVLLKAGADVNAKDRYGKTPLHLAAISGHLEIVEVLLKAGADVNAQDNKGSTPADLAADYGHQDIAEVLQKAAGSPTGSDLGQKLLEAAWAGQDDEVRELLKAGADVNAKNSRGWTPLHTAAQTGHLEIFEVLLKAGADVNAKNDKRVTPLHLAAALGHLEIVEVLLKAGADVNARDSWGTTPADLAAKYGHQDIAEVLQKAA | 
 | 0.56 | 1.3 | 5.5 | DARPin® protein #51 (designed binder, HSA-HSA-CD70-CD33-CD3) MRGSHHHHHHDLGKKLLEAARAGQDDEVRELLKAGADVNAKDYFSHTPLHLAARNGHLKIVEVLLKAGADVNAKDFAGKTPLHLAAADGHLEIVEVLLKAGADVNAQDIFGKTPADIAADAGHEDIAEVLQKAAGSPTPTPTTPTPTPTTPTPTPTGSDLGKKLLEAARAGQDDEVRELLKAGADVNAKDYFSHTPLHLAARNGHLKIVEVLLKAGADVNAKDFAGKTPLHLAAADGHLEIVEVLLKAGADVNAQDIFGKTPADIAADAGHEDIAEVLQKAAGSPTPTPTTPTPTPTTPTPTPTGSDLGYKLLQAAYDGQLDEVRILLKAGADVNAKDSRGQTPLHYAASIGHLEIVEVLLKAGADVNAKDDHGWTPLHLAAWSGHLEIVEVLLKAGADVNAQDQEGTTPADLAAVQGHQDIAEVLQKAAGSPTPTPTTPTPTPTTPTPTPTGSDLGVKLLLAASRGQLDEVRILLKAGADVNAKDIDEGYTPLHIAAYYGHLEIVEVLLKAGADVNAKDRYGKTPLHLAAISGHLEIVEVLLKAGADVNAQDDKGDTPADLAADYGHQDIAEVLQKAAGSPTPTPTTPTPTPTTPTPTPTGSDLGQKLLEAAWAGQDDEVRELLKAGADVNAKNSRGWTPLHTAAQTGHLEIFEVLLKAGADVNAKDDKGVTPLHLAAALGHLEIVEVLLKAGADVNAQDSWGTTPADLAAKYGHEDIAEVLQKAA | no binding (tested: 100 nM (highest concentration))
 | 0.81 | 24 | 7.5 | DARPin® protein #50 (designed binder, HSA-CD70-CD33-CD3) MRGSHHHHHHDLGKKLLEAARAGQDDEVRELLKAGADVNAKDYFSHTPLHLAARNGHLKIVEVLLKAGADVNAKDFAGKTPLHLAAADGHLEIVEVLLKAGADVNAQDIFGKTPADIAADAGHEDIAEVLQKAAGSPTPTPTTPTPTPTTPTPTPTGSDLGYKLLQAAYDGQLDEVRILLKAGADVNAKDSRGQTPLHYAASIGHLEIVEVLLKAGADVNAKDDHGWTPLHLAAWSGHLEIVEVLLKAGADVNAQDQEGTTPADLAAVQGHQDIAEVLQKAAGSPTPTPTTPTPTPTTPTPTPTGSDLGVKLLLAASRGQLDEVRILLKAGADVNAKDIDEGYTPLHIAAYYGHLEIVEVLLKAGADVNAKDRYGKTPLHLAAISGHLEIVEVLLKAGADVNAQDDKGDTPADLAADYGHQDIAEVLQKAAGSPTPTPTTPTPTPTTPTPTPTGSDLGQKLLEAAWAGQDDEVRELLKAGADVNAKNSRGWTPLHTAAQTGHLEIFEVLLKAGADVNAKDDKGVTPLHLAAALGHLEIVEVLLKAGADVNAQDSWGTTPADLAAKYGHEDIAEVLQKAA | no binding (tested: 100 nM (highest concentration))
0.36 |  |  |  | DARPin® protein #62 (designed binder, HSA-HSA-CD70-CD33-CD123-CD3) DLGKKLLEAARAGQDDEVRELLKAGADVNAKDYFSHTPLHLAARNGHLKIVEVLLKAGADVNAKDFAGKTPLHLAAADGHLEIVEVLLKAGADVNAQDIFGKTPADIAADAGHEDIAEVLQKAAGSPTPTPTTPTPTPTTPTPTPTGSDLGKKLLEAARAGQDDEVRELLKAGADVNAKDYFSHTPLHLAARNGHLKIVEVLLKAGADVNAKDFAGKTPLHLAAADGHLEIVEVLLKAGADVNAQDIFGKTPADIAADAGHEDIAEVLQKAAGSPTPTPTTPTPTPTTPTPTPTGSDLGIKLLTAAYDGQLDEVRILLKAGADVNAKDLRGQTPLHYAAGLGHLEIVEVLLKAGADVNAKDLHGWTPLHLAAWSGHLEIVEVLLKAGADVNAQDVEGVTPADLAAVQGHQDIAEVLQKAAGSPTPTPTTPTPTPTTPTPTPTGSDLGVKLLLAAERGQLDEVRILLKAGADVNAKDIAEGYTPLHIAAYQGHLEIVEVLLKAGADVNAKDRYGKTPLHLAAIGGHLEIVEVLLKAGADVNAQDNKGSTPADLAADYGHQDIAEVLQKAAGSPTPTPTTPTPTPTTPTPTPTGSDLGKKLLEAALEGQLDEVRELLKAGADVNAKDQEGYTPLHLAAALGHLEIVEVLLKAGADVNAKDQIGRTPLHLAAYKGHLEIVEVLLKAGADVNAQDIIGQTPADLAAQRGHQDIAEVLQKAAGSPTPTPTTPTPTPTTPTPTPTGSDLGQKLLEAAWAGQDDEVRELLKAGADVNAKNSRGWTPLHTAAQTGHLEIFEVLLKAGADVNAKNDKRVTPLHLAAALGHLEIVEVLLKAGADVNARDSWGTTPADLAAKYGHQDIAEVLQKAA | 
